Experimental data reported in article PMC3626604, “The C-Type Lectin of the Aggrecan G3 Domain Activates Complement” (PLoS ONE, 2013).

Biological target: T1, factor H (human (endogenous in normal human serum), UniProt P08603 19-1231)
T1 construct: complement factor H; also called FH
Test: ELISA; proteins coated (G3 fragments 5 µg/ml, fibromodulin 2.5 µg/ml); heat-inactivated normal human serum diluted in 50 mM Hepes pH 7.4, 150 mM NaCl, 2 mM CaCl2, 50 µg/ml BSA; 1 h at RT; detected with anti-FH
Settings: one partner purified

T1 sequence (P08603 19-1231): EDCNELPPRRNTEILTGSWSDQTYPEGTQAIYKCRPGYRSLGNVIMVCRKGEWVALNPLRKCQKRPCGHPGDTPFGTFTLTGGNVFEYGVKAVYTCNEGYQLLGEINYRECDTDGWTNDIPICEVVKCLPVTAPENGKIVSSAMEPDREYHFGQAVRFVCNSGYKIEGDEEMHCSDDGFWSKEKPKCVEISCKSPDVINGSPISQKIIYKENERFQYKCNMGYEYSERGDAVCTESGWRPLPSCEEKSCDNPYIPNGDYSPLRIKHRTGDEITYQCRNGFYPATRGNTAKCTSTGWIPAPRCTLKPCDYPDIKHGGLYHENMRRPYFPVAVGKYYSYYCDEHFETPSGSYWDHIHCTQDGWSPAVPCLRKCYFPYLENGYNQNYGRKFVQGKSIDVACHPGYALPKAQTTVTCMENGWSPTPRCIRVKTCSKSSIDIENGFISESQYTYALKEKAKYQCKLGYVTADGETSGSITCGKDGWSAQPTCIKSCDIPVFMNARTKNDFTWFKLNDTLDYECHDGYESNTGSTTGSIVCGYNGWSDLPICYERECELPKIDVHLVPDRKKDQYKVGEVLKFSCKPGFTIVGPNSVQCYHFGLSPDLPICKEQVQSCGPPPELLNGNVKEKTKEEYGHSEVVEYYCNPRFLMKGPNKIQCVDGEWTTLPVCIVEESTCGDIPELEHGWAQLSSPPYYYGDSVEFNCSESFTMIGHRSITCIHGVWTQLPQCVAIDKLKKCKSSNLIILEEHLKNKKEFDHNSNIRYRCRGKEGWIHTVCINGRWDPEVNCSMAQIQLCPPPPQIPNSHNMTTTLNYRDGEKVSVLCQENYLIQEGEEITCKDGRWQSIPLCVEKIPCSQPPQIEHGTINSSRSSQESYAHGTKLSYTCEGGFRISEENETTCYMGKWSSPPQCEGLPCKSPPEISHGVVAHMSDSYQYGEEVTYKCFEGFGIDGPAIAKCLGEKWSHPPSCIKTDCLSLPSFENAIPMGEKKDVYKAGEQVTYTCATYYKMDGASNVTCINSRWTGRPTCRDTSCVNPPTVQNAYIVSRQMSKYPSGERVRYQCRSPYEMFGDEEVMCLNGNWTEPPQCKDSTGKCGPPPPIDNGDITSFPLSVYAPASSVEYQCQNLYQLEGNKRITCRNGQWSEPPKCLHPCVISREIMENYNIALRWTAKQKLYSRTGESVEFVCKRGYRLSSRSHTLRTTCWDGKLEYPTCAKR

B1: recombinant bovine fibromodulin (natural protein, UniProt P13605 19-376, looked up)
chain: QYEEDSHWWFQFLRNQQSTYDDPYDPYPYEPYEPYPYGGEEGPAYAYGSPPQPEPRDCPQECDCPPNFPTAMYCDNRNLKYLPFVPSRMKYVYFQNNQISSIQEGVFDNATGLLWIALHGNQITSDKVGKKVFSKLRHLERLYLDHNNLTRIPSPLPRSLRELHLDHNQISRVPNNALEGLENLTALYLHHNEIQEVGSSMKGLRSLILLDLSYNHLRKVPDGLPSALEQLYLEHNNVFSVPDSYFRGSPKLLYVRLSHNSLTNNGLASNTFNSSSLLELDLSYNQLQKIPPVSTNLENLYLQGNRINEFSISSFCTVVDVMNFSKLQVLRLDGNEIKRSAMPADAPLCLRLASLIEI
notes: fibromodulin, bovine; source: recombinant
binding result: binds
